This note sets out measurements from patent publication US20260356943 (published 2026).

Changes are numbered by the printed parent chain.

In assay [1] the target is T1, human ROR1 (human, UniProt Q01973). The experiment in a line: ELISA, stored 37C 2 weeks.
Assay [2] deals with T1, human ROR1. The experiment in a line: ELISA, stored 4C.
Assay [3] concerns the target T2, human B7-H3 (human, UniProt Q5ZPR3).
T2 chain: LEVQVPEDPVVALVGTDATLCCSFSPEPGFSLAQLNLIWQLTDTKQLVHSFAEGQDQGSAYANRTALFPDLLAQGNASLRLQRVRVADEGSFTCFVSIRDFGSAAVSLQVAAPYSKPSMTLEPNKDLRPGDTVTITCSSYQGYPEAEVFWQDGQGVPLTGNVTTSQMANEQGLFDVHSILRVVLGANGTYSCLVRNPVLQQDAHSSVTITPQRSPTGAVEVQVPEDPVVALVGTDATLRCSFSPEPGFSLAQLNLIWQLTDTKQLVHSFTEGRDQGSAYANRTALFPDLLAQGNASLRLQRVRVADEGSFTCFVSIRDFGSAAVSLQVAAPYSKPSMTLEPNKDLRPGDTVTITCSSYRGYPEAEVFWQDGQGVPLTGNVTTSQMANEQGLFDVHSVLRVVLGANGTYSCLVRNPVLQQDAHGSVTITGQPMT
Briefly: ELISA, stored 40C 2 weeks.

The target of assay [4] is T2, human B7-H3. Briefly: ELISA, stored 4C.
In assay [5] the target is T1, human ROR1. The experiment in a line: ELISA, monkey serum 14 days.
In assay [6] the target is T1, human ROR1. Briefly: ELISA, human serum 0 day.
The target of assay [7] is T1, human ROR1. The experiment in a line: ELISA, dual-antigen capture ROR1/4-1BB.
Assay [8] concerns the target T1, human ROR1. Briefly: ELISA, human serum 7 days.
In assay [9] the target is T1, human ROR1. The experiment in a line: ELISA, human serum 2 days.
In assay [10] the target is T1, human ROR1. The experiment in a line: ELISA, human serum 14 days.
In assay [11] the target is T1, human ROR1. The experiment in a line: ELISA, monkey serum 2 days.
The target of assay [12] is T1, human ROR1. Briefly: ELISA, monkey serum 7 days.
Assay [13] deals with T1, human ROR1. Briefly: ELISA, monkey serum 0 day.
Assay [14] has as its target T1, human ROR1. Briefly: SPR, 25C, bivalent analyte.
The target of assay [15] is T1, human ROR1. Briefly: ELISA, monkey serum 3 days.
Assay [16] has as its target T1, human ROR1. The experiment in a line: ELISA, human serum 3 days.
Assay [17] addresses T1, human ROR1. The experiment in a line: ELISA, stored 40C 2 weeks.
The target in assay [18] is T1, human ROR1. The experiment in a line: ELISA, stored 4C. The source holds these as a separate data set.
The target of assay [19] is human 4-1BB (human, UniProt Q07011). Briefly: SPR, 25C.
human 4-1BB, sequence (Q07011 24-186): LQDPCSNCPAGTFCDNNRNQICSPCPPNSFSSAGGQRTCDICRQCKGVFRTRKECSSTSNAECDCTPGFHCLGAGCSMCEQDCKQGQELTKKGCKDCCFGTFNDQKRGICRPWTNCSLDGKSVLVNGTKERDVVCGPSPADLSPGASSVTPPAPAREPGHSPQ

T1 sequence (Q01973 30-403): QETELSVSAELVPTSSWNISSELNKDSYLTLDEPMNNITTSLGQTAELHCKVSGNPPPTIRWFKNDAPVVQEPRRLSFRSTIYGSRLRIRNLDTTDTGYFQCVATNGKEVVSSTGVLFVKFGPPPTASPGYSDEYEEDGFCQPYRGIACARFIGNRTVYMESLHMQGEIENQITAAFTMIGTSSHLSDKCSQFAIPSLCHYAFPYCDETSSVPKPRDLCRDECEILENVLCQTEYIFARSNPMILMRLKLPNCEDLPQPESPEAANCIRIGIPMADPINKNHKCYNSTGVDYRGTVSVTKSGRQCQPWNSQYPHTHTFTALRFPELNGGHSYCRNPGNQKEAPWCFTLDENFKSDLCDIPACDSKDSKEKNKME

B1: BA6M11 IgG (antibody, V domains shown)
VH: EVQLLESGGGLVQPGGSLRLSCAASGFTFSNYDMSWVRQAPGKGLEWVSAIYHSGSSKYYADSVKGRFTISRDNSKNTLYLQMNSLRAEDTAVYYCARGGSGAWDTGFDYWGQGTLVTVSS
VL: QSVLTQPPSASGTPGQRVTISCSGSSSNIGSNDVSWYQQLPGTAPKLLIYYENNRPSGVPDRFSGSKSGTSASLAISGLRSEDEADYYCGAWDDSLSGYVFGGGTKLTVL
In the case of B1, the 50% effective concentration (EC50) is 0.129 nM in [1] and 0.166 nM in assay [2].

B2: BA6xB5 B7-H3 arm (antibody, V domains shown)
VH: EVQLLESGGGLVQPGGSLRLSCAASGFTFSDYAMSWVRQAPGKCLEWVSSISSGSGSIYYADSVKGRFTISRDNSKNTLYLQMNSLRAEDTAVYYCAKNLIPLDYWGQGTLVTVSS
VL: B1 VL with D33A, E52N, N53S, N54H, A91S, D94A, S97N, G98A, G103C
With B2, the EC50 is 0.186 nM in [3] and 0.173 nM in [4].

B3: BA6x1A10M12 ROR1 arm (antibody, V domains shown)
VH: B1 VH with S101N
VL: B1 VL with E52D
For B3, the EC50 worked out at 0.419 nM in assay [5]; 0.228 nM in [6]; 0.386 nM in [7]; 0.42 nM in assay [8]; 0.365 nM in assay [9]; 0.457 nM in assay [10]. The EC50 in [11] came out at 0.36 nM; in [12] it was 0.427 nM; in assay [13], 0.24 nM.

B4: BA6M11(NA)x1A10M12 ROR1 arm (antibody, V domains shown)
VH: B1 VH
VL: B1 VL
With B4, the EC50 turned out to be 0.273 nM in [5]; 0.211 nM in [6]; 0.268 nM in assay [7]; 0.236 nM in assay [8]; 0.233 nM in assay [10]; 0.238 nM in [15]. For the same molecule, the EC50 in assay [16] amounted to 0.22 nM; in [12], 0.257 nM; in assay [13] it was 0.208 nM. This molecule also registered a Kd in [14] of 6.65 nM.

B5: BA6 IgG (WT) (antibody, V domains shown)
VH: B1 VH with S101N
VL: B1 VL with E52D
Consider B5, for which the EC50 worked out at 0.261 nM in [1] and 0.217 nM in assay [2].

B6: BA6xB5 ROR1 arm (antibody, V domains shown)
VH: B1 VH with S101N
VL: B1 VL with E52D
For the molecule B6, the EC50 worked out at 0.18 nM in assay [17] and 0.141 nM in assay [18].

B7: BA6M11xB5 B7-H3 arm (antibody, V domains shown)
VH: B2 VH
VL: B1 VL with D33A, E52N, N53S, N54H, A91S, D94A, S97N, G98A, G103C
As for B7, the EC50 in assay [3] is 0.19 nM; in assay [4], 0.232 nM.

B8: BA6M11xB5 ROR1 arm (antibody, V domains shown)
VH: B1 VH
VL: B1 VL
On to B8, for which the EC50 in assay [17] was 0.134 nM; in assay [18] it was 0.152 nM.

B9: BA6M11(WT)x1A10M12 ROR1 arm (antibody, V domains shown)
VH: B1 VH
VL: B1 VL
In assay [14], B9 had a Kd of 6.05 nM.

B10: BA6M11(WT)x1A10M12 4-1BB arm (antibody, V domains shown)
VH: EVQLLESGGGLVQPGGSLRLSCAASGFTFSSYDMSWVRQAPGKCLEWVSWISYSGGSIYYADSVKGRFTISRDNSKNTLYLQMNSLRAEDTAVYYCARDAQRNSMREFDYWGQGTLVTVSS
VL: QSVLTQPPSASGTPGQRVTISCSGSSSNIGNNYVTWYQQLPGTAPKLLIYADSHRPSGVPDRFSGSKSGTSASLAISGLRSEDEADYYCATWDYSLSGYVFGCGTKLTVL
Molecule B10 registered a Kd in assay [19] of 4.53 nM.

B11: BA6M11(NA)x1A10M12 4-1BB arm (antibody, V domains shown)
VH: B10 VH
VL: B10 VL
Regarding B11, in [19], the Kd turned out to be 4.5 nM.
